Results published in article PMC3154423.

Tests used:
Assay in all cases: ITC
[1] = molecular target: Jun bZIP K273A;Fos bZIP R146A (human;human, UniProt P05412;P01100 252-315;137-200, K273A|R146A)
[2] = molecular target: Jun bZIP R261A;Fos bZIP R146A (human;human, UniProt P05412;P01100 252-315;137-200, R261A|R146A)
[3] = molecular target: Jun bZIP R263A;Fos bZIP R158A (human;human, UniProt P05412;P01100 252-315;137-200, R263A|R158A)
[4] = molecular target: Jun bZIP K258A;Fos bZIP R158A (human;human, UniProt P05412;P01100 252-315;137-200, K258A|R158A)
[5] = molecular target: Jun bZIP R263A;Fos bZIP R143A (human;human, UniProt P05412;P01100 252-315;137-200, R263A|R143A)
[6] = molecular target: Jun bZIP K268A;Fos bZIP R155A (human;human, UniProt P05412;P01100 252-315;137-200, K268A|R155A)
[7] = molecular target: Jun-Jun bZIP R259A (human, UniProt P05412 252-315, R259A)
[8] = molecular target: Jun bZIP R270A;Fos bZIP R146A (human;human, UniProt P05412;P01100 252-315;137-200, R270A|R146A)
[9] = molecular target: Jun bZIP R259A;Fos bZIP R158A (human;human, UniProt P05412;P01100 252-315;137-200, R259A|R158A)
[10] = molecular target: Jun bZIP R270A;Fos bZIP R143A (human;human, UniProt P05412;P01100 252-315;137-200, R270A|R143A)
[11] = molecular target: Jun bZIP R272A;Fos bZIP R158A (human;human, UniProt P05412;P01100 252-315;137-200, R272A|R158A)
[12] = molecular target: Jun-Jun bZIP WT (human, UniProt P05412 252-315)
[13] = molecular target: Jun bZIP R272A;Fos bZIP R146A (human;human, UniProt P05412;P01100 252-315;137-200, R272A|R146A)
[14] = molecular target: Jun bZIP R261A;Fos bZIP R155A (human;human, UniProt P05412;P01100 252-315;137-200, R261A|R155A)
[15] = molecular target: Jun bZIP K268A;Fos bZIP K153A (human;human, UniProt P05412;P01100 252-315;137-200, K268A|K153A)
[16] = molecular target: Jun bZIP R259A;Fos bZIP R144A (human;human, UniProt P05412;P01100 252-315;137-200, R259A|R144A)
[17] = molecular target: Jun bZIP K273A;Fos bZIP K153A (human;human, UniProt P05412;P01100 252-315;137-200, K273A|K153A)
Jun bZIP K273A;Fos bZIP K153A, sequence (P05412 252-315 K273A, chain 1 of 2): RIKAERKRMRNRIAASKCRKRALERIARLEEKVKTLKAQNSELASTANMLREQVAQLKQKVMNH
Jun bZIP K273A;Fos bZIP K153A, sequence (P01100 137-200 K153A, chain 2 of 2): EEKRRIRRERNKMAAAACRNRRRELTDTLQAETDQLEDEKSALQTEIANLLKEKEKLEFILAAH

Jun bZIP R272A;Fos bZIP R146A, sequence (P05412 252-315 R272A, chain 1 of 2): as the sequence (P05412 252-315 K273A, chain 1 of 2) above, with R21A, A22K counted along it
Jun bZIP R272A;Fos bZIP R146A, sequence (P01100 137-200 R146A, chain 2 of 2): as the sequence (P01100 137-200 K153A, chain 2 of 2) above, with R10A, A17K counted along it
Jun bZIP R272A;Fos bZIP R158A, sequence (P05412 252-315 R272A, chain 1 of 2): as the sequence (P05412 252-315 K273A, chain 1 of 2) above, with R21A, A22K counted along it
Jun bZIP R272A;Fos bZIP R158A, sequence (P01100 137-200 R158A, chain 2 of 2): as the sequence (P01100 137-200 K153A, chain 2 of 2) above, with A17K, R22A counted along it
Jun bZIP K268A;Fos bZIP R155A, sequence (P05412 252-315 K268A, chain 1 of 2): as the sequence (P05412 252-315 K273A, chain 1 of 2) above, with K17A, A22K counted along it
Jun bZIP K268A;Fos bZIP R155A, sequence (P01100 137-200 R155A, chain 2 of 2): as the sequence (P01100 137-200 K153A, chain 2 of 2) above, with A17K, R19A counted along it
Jun bZIP K268A;Fos bZIP K153A, sequence (P05412 252-315 K268A, chain 1 of 2): as the sequence (P05412 252-315 K273A, chain 1 of 2) above, with K17A, A22K counted along it
Jun bZIP K268A;Fos bZIP K153A, sequence (P01100 137-200 K153A, chain 2 of 2): as the sequence (P01100 137-200 K153A, chain 2 of 2) above
Jun bZIP R263A;Fos bZIP R158A, sequence (P05412 252-315 R263A, chain 1 of 2): as the sequence (P05412 252-315 K273A, chain 1 of 2) above, with R12A, A22K counted along it
Jun bZIP R263A;Fos bZIP R158A, sequence (P01100 137-200 R158A, chain 2 of 2): as the sequence (P01100 137-200 K153A, chain 2 of 2) above, with A17K, R22A counted along it
Jun bZIP R263A;Fos bZIP R143A, sequence (P05412 252-315 R263A, chain 1 of 2): as the sequence (P05412 252-315 K273A, chain 1 of 2) above, with R12A, A22K counted along it
Jun bZIP R263A;Fos bZIP R143A, sequence (P01100 137-200 R143A, chain 2 of 2): as the sequence (P01100 137-200 K153A, chain 2 of 2) above, with R7A, A17K counted along it
Jun bZIP K258A;Fos bZIP R158A, sequence (P05412 252-315 K258A, chain 1 of 2): as the sequence (P05412 252-315 K273A, chain 1 of 2) above, with K7A, A22K counted along it
Jun bZIP K258A;Fos bZIP R158A, sequence (P01100 137-200 R158A, chain 2 of 2): as the sequence (P01100 137-200 K153A, chain 2 of 2) above, with A17K, R22A counted along it
Jun bZIP R270A;Fos bZIP R146A, sequence (P05412 252-315 R270A, chain 1 of 2): as the sequence (P05412 252-315 K273A, chain 1 of 2) above, with R19A, A22K counted along it
Jun bZIP R270A;Fos bZIP R146A, sequence (P01100 137-200 R146A, chain 2 of 2): as the sequence (P01100 137-200 K153A, chain 2 of 2) above, with R10A, A17K counted along it
Jun bZIP R270A;Fos bZIP R143A, sequence (P05412 252-315 R270A, chain 1 of 2): as the sequence (P05412 252-315 K273A, chain 1 of 2) above, with R19A, A22K counted along it
Jun bZIP R270A;Fos bZIP R143A, sequence (P01100 137-200 R143A, chain 2 of 2): as the sequence (P01100 137-200 K153A, chain 2 of 2) above, with R7A, A17K counted along it
Jun bZIP R261A;Fos bZIP R155A, sequence (P05412 252-315 R261A, chain 1 of 2): as the sequence (P05412 252-315 K273A, chain 1 of 2) above, with R10A, A22K counted along it
Jun bZIP R261A;Fos bZIP R155A, sequence (P01100 137-200 R155A, chain 2 of 2): as the sequence (P01100 137-200 K153A, chain 2 of 2) above, with A17K, R19A counted along it
Jun bZIP R261A;Fos bZIP R146A, sequence (P05412 252-315 R261A, chain 1 of 2): as the sequence (P05412 252-315 K273A, chain 1 of 2) above, with R10A, A22K counted along it
Jun bZIP R261A;Fos bZIP R146A, sequence (P01100 137-200 R146A, chain 2 of 2): as the sequence (P01100 137-200 K153A, chain 2 of 2) above, with R10A, A17K counted along it
Jun bZIP K273A;Fos bZIP R146A, sequence (P05412 252-315 K273A, chain 1 of 2): as the sequence (P05412 252-315 K273A, chain 1 of 2) above
Jun bZIP K273A;Fos bZIP R146A, sequence (P01100 137-200 R146A, chain 2 of 2): as the sequence (P01100 137-200 K153A, chain 2 of 2) above, with R10A, A17K counted along it
Jun bZIP R259A;Fos bZIP R144A, sequence (P05412 252-315 R259A, chain 1 of 2): as the sequence (P05412 252-315 K273A, chain 1 of 2) above, with R8A, A22K counted along it
Jun bZIP R259A;Fos bZIP R144A, sequence (P01100 137-200 R144A, chain 2 of 2): as the sequence (P01100 137-200 K153A, chain 2 of 2) above, with R8A, A17K counted along it
Jun-Jun bZIP R259A, sequence (P05412 252-315 R259A): as the sequence (P05412 252-315 K273A, chain 1 of 2) above, with R8A, A22K counted along it
Jun bZIP R259A;Fos bZIP R158A, sequence (P05412 252-315 R259A, chain 1 of 2): as the sequence (P05412 252-315 K273A, chain 1 of 2) above, with R8A, A22K counted along it
Jun bZIP R259A;Fos bZIP R158A, sequence (P01100 137-200 R158A, chain 2 of 2): as the sequence (P01100 137-200 K153A, chain 2 of 2) above, with A17K, R22A counted along it
Jun-Jun bZIP WT, sequence (P05412 252-315): as the sequence (P05412 252-315 K273A, chain 1 of 2) above, with A22K counted along it

B1: TRE duplex 15-mer (dsDNA)
DNA 1: CGCGTGACTCACCCC
DNA 2: GGGGTGAGTCACGCG
[1]
  Kd: 680 ± 10 nM
[2]
  Kd: 1030 ± 20 nM
[3]
  Kd: 1120 ± 70 nM
[4]
  Kd: 960 ± 60 nM
[5]
  Kd: 2250 ± 50 nM
[6]
  Kd: 1390 ± 80 nM
[7]
  Kd: 5250 ± 60 nM
[8]
  Kd: 1450 ± 130 nM
[9]
  Kd: 2160 ± 130 nM
[10]
  Kd: 1600 ± 50 nM
[11]
  Kd: 620 ± 40 nM
[12]
  Kd: 190 ± 20 nM
[13]
  Kd: 750 ± 100 nM
[14]
  Kd: 2460 ± 30 nM
[15]
  Kd: 470 ± 60 nM
[16]
  Kd: 15800 ± 620 nM
[17]
  Kd: 840 ± 50 nM
